By Kd is commonly meant the concentration at which binding is half-saturated. Higher therefore signals a looser complex.

The labels stand for the following.
B1: DNMT1 RFTS domain (aa: 351–600) (domain or fragment)
chain: PKCIQCGQYLDDPDLKYGQHPPDAVDEPQMLTNEKLSIFDANESGFESYEALPQHKLTCFSVYCKHGHLCPIDTGLIEKNIELFFSGSAKPIYDDDPSLEGGVNGKNLGPINEWWITGFDGGEKALIGFSTSFAEYILMDPSPEYAPIFGLMQEKIYISKIVVEFLQSNSDSTYEDLINKIETTVPPSGLNLNRFTEDSLLRHAQFVVEQVESYDEAGDSDEQPIFLTPCMRDLIKLAGVTLGQRRAQAR
B2: DNMT1 RFTS domain E384A (domain or fragment)
chain: PKCIQCGQYLDDPDLKYGQHPPDAVDEPQMLTNAKLSIFDANESGFESYEALPQHKLTCFSVYCKHGHLCPIDTGLIEKNIELFFSGSAKPIYDDDPSLEGGVNGKNLGPINEWWITGFDGGEKALIGFSTSFAEYILMDPSPEYAPIFGLMQEKIYISKIVVEFLQSNSDSTYEDLINKIETTVPPSGLNLNRFTEDSLLRHAQFVVEQVESYDEAGDSDEQPIFLTPCMRDLIKLAGVTLGQRRAQAR
B4: DNMT1 RFTS domain E397A (domain or fragment)
chain: PKCIQCGQYLDDPDLKYGQHPPDAVDEPQMLTNEKLSIFDANESGFASYEALPQHKLTCFSVYCKHGHLCPIDTGLIEKNIELFFSGSAKPIYDDDPSLEGGVNGKNLGPINEWWITGFDGGEKALIGFSTSFAEYILMDPSPEYAPIFGLMQEKIYISKIVVEFLQSNSDSTYEDLINKIETTVPPSGLNLNRFTEDSLLRHAQFVVEQVESYDEAGDSDEQPIFLTPCMRDLIKLAGVTLGQRRAQAR

The target in test [1] is T1, ubiquitin (UniProt P0CG48 1-76). The test can be described thus: ITC.
For test [2], the target named is DNMT1 RFTS domain E384A/E397A (human, UniProt P26358 351-600, E384A | E397A). In words: ITC. A general note: Isothermal titration calorimetry measures the heat released or taken up as one component is titrated into another.
Test [3] deals with B2. In words: ITC.
For test [4], the target named is B1. The test can be described thus: ITC.
For test [5], the target named is DNMT1 RFTS domain I442G (human, UniProt P26358 351-600, I442G). In words: ITC.
Test [6] concerns the target B4. In words: ITC.
The target in test [7] is DNMT1 RFTS domain Y399G (human, UniProt P26358 351-600, Y399G). In words: ITC.
The target of test [8] is T1, ubiquitin. The test can be described thus: NMR titration.

B1 displayed a Kd in test [1] of 26 µM.

As to B2, the “fold reduction of binding against wild-type RFTS” value in test [1] is around 2 fold.

B3: UHRF1 UBL domain (aa: 1–76) (domain or fragment)
chain: MWIQVRTMDGRQTHTVDSLSRLTKVEELRRKIQELFHVEPGLQRLFYRGKQMEDGHTLFDYEVRLNDTIQLLVRQS
For the molecule B3, the binding result in test [2], in test [3], in test [5], in test [6] and in test [7] was “binds” each time. This molecule also displayed a Kd in test [4] of 41.3 µM.

For the molecule B4, in test [1], the “fold reduction of binding against wild-type RFTS” value is around 2 fold.

B5: DNMT1_351 (aa: 351–1616) (domain or fragment)
chain: PKCIQCGQYLDDPDLKYGQHPPDAVDEPQMLTNEKLSIFDANESGFESYEALPQHKLTCFSVYCKHGHLCPIDTGLIEKNIELFFSGSAKPIYDDDPSLEGGVNGKNLGPINEWWITGFDGGEKALIGFSTSFAEYILMDPSPEYAPIFGLMQEKIYISKIVVEFLQSNSDSTYEDLINKIETTVPPSGLNLNRFTEDSLLRHAQFVVEQVESYDEAGDSDEQPIFLTPCMRDLIKLAGVTLGQRRAQARRQTIRHSTREKDRGPTKATTTKLVYQIFDTFFAEQIEKDDREDKENAFKRRRCGVCEVCQQPECGKCKACKDMVKFGGSGRSKQACQERRCPNMAMKEADDDEEVDDNIPEMPSPKKMHQGKKKKQNKNRISWVGEAVKTDGKKSYYKKVCIDAETLEVGDCVSVIPDDSSKPLYLARVTALWEDSSNGQMFHAHWFCAGTDTVLGATSDPLELFLVDECEDMQLSYIHSKVKVIYKAPSENWAMEGGMDPESLLEGDDGKTYFYQLWYDQDYARFESPPKTQPTEDNKFKFCVSCARLAEMRQKEIPRVLEQLEDLDSRVLYYSATKNGILYRVGDGVYLPPEAFTFNIKLSSPVKRPRKEPVDEDLYPEHYRKYSDYIKGSNLDAPEPYRIGRIKEIFCPKKSNGRPNETDIKIRVNKFYRPENTHKSTPASYHADINLLYWSDEEAVVDFKAVQGRCTVEYGEDLPECVQVYSMGGPNRFYFLEAYNAKSKSFEDPPNHARSPGNKGKGKGKGKGKPKSQACEPSEPEIEIKLPKLRTLDVFSGCGGLSEGFHQAGISDTLWAIEMWDPAAQAFRLNNPGSTVFTEDCNILLKLVMAGETTNSRGQRLPQKGDVEMLCGGPPCQGFSGMNRFNSRTYSKFKNSLVVSFLSYCDYYRPRFFLLENVRNFVSFKRSMVLKLTLRCLVRMGYQCTFGVLQAGQYGVAQTRRRAIILAAAPGEKLPLFPEPLHVFAPRACQLSVVVDDKKFVSNITRLSSGPFRTITVRDTMSDLPEVRNGASALEISYNGEPQSWFQRQLRGAQYQPILRDHICKDMSALVAARMRHIPLAPGSDWRDLPNIEVRLSDGTMARKLRYTHHDRKNGRSSSGALRGVCSCVEAGKACDPAARQFNTLIPWCLPHTGNRHNHWAGLYGRLEWDGFFSTTVTNPEPMGKQGRVLHPEQHRVVSVRECARSQGFPDTYRLFGNILDKHRQVGNAVPPPLAKAIGLEIKLCMLAKARESASAKIKEEEAAKD
Turning to B5, in test [8], the binding result is “binds”.

For the origin of these results see PMC5887372 (Nucleic Acids Research, 2018).
